Measured values as given in the Immune Epitope Database (IEDB).
pKd: −log10 of the molar value.

Tests used:
[1] = target: HLA-A*02:03; assay: IEDB peptide-MHC binding, purified MHC/direct/fluorescence; filed as Kd, often an IC50 or EC50 that approximates it; ≥ and ≤ were set here for values at or beyond the usual limits of such assays
[2] = target: HLA-A*02:11; assay: as above
[3] = target: HLA-A*02:12; assay: as above
[4] = target: HLA-A*02:16; assay: as above
[5] = target: HLA-A*02:19; assay: as above
[6] = target: HLA-A*03:01; assay: as above
[7] = target: HLA-A*11:01; assay: as above
[8] = target: HLA-A*23:01; assay: as above
[9] = target: HLA-A*24:03; assay: as above
[10] = target: HLA-A*29:02; assay: as above
[11] = target: HLA-A*68:02; assay: as above
[12] = target: HLA-A*02:01; assay: IEDB peptide-MHC binding, purified MHC/competitive/fluorescence; filed as Kd, often an IC50 or EC50 that approximates it; ≥ and ≤ were set here for values at or beyond the usual limits of such assays
[13] = target: HLA-A*26:01; assay: as above
[14] = target: HLA-A*69:01; assay: as above
[15] = target: HLA-B*15:17; assay: as above
[16] = target: HLA-B*18:01; assay: as above
[17] = target: HLA-B*39:01; assay: as above
[18] = target: HLA-B*46:01; assay: as above
[19] = target: HLA-B*51:01; assay: as above
[20] = target: HLA-B*57:01; assay: as above
[21] = target: HLA-B*27:03; assay: as above
[22] = target: HLA-A*01:01; assay: IEDB peptide-MHC binding, purified MHC/direct/fluorescence; filed as Kd, often an IC50 or EC50 that approximates it; ≥ and ≤ were set here for values at or beyond the usual limits of such assays; settings: source organism: Orthohantavirus andesense
[23] = target: HLA-A*02:01; assay: as above; settings: source organism: Orthohantavirus andesense
[24] = target: HLA-A*31:01; assay: as above; settings: source organism: Orthohantavirus andesense
[25] = target: HLA-A*69:01; assay: as above; settings: source organism: Orthohantavirus andesense
[26] = target: HLA-B*07:02; assay: as above; settings: source organism: Orthohantavirus andesense
[27] = target: HLA-B*08:01; assay: as above; settings: source organism: Hantavirus Monongahela-3
[28] = target: HLA-B*15:01; assay: as above; settings: source organism: Orthohantavirus andesense
[29] = target: HLA-B*18:01; assay: as above; settings: source organism: Orthohantavirus andesense
[30] = target: HLA-B*27:05; assay: as above; settings: source organism: Orthohantavirus andesense
[31] = target: HLA-B*40:01; assay: as above; settings: source organism: Orthohantavirus andesense
[32] = target: HLA-B*44:02; assay: as above; settings: source organism: Orthohantavirus andesense
[33] = target: HLA-B*46:01; assay: as above; settings: source organism: Orthohantavirus andesense
[34] = target: HLA-B*48:01; assay: as above; settings: source organism: Orthohantavirus andesense
[35] = target: HLA-B*57:01; assay: as above; settings: source organism: Orthohantavirus andesense
[36] = target: HLA-B*58:01; assay: as above; settings: source organism: Orthohantavirus andesense
[37] = target: HLA-A*02:03; assay: IEDB peptide-MHC binding, purified MHC/competitive/fluorescence; filed as Kd, often an IC50 or EC50 that approximates it; ≥ and ≤ were set here for values at or beyond the usual limits of such assays; settings: source organism: Vibrio vulnificus YJ016
[38] = target: HLA-A*02:12; assay: as above; settings: source organism: Vibrio vulnificus YJ016
[39] = target: HLA-A*02:19; assay: as above; settings: source organism: Vibrio vulnificus YJ016
[40] = target: HLA-A*24:03; assay: as above
[41] = target: HLA-A*68:02; assay: as above; settings: source organism: Vibrio vulnificus YJ016
[42] = target: HLA-B*15:01; assay: as above; settings: source organism: Vibrio vulnificus YJ016
[43] = source organism: Rickettsia bellii OSU 85-389
[44] = source organism: Rickettsia bellii RML369-C
[45] = source organism: Giardia lamblia ATCC 50803
[46] = source organism: Limestone Canyon virus
[47] = source organism: Orthohantavirus andesense
[48] = source organism: Four Corners hantavirus
[49] = source organism: Vibrio vulnificus YJ016

For AKIALAVYK, the pKd [1, 43] was ≤ 4.70, the pKd [2, 43] was ≤ 4.70 and the pKd [3, 43] was ≤ 4.70. The pKd [4, 43] was ≤ 4.70, the pKd [5, 43] was ≤ 4.70 and the pKd [6, 43] was ≤ 4.70. For the same sequence, the pKd [7, 43] was 6.37, the pKd [8, 43] was ≤ 4.70 and the pKd [9, 43] was ≤ 4.70. For the same sequence, the pKd [10, 43] was ≤ 4.70, the pKd [11, 43] was ≤ 4.70 and the pKd [12, 44] was ≤ 4.70. For the same sequence, the pKd [13, 44] was ≤ 4.70, the pKd [14, 44] was ≤ 4.70 and the pKd [15, 44] was ≤ 4.70. The pKd [16, 44] was ≤ 4.70, the pKd [17, 44] was ≤ 4.70 and the pKd [18, 44] was ≤ 4.70. The pKd [19, 44] was ≤ 4.70 and the pKd [20, 44] was ≤ 4.70.

With APDGFYPFK the pKd [1, 45] was ≤ 4.70, the pKd [2, 45] was ≤ 4.70 and the pKd [3, 45] was ≤ 4.70. The pKd [4, 45] was ≤ 4.70, the pKd [5, 45] was ≤ 4.70 and the pKd [6, 45] was ≤ 4.70. For the same sequence, the pKd [7, 45] was 6.61, the pKd [8, 45] was ≤ 4.70 and the pKd [9, 45] was ≤ 4.70. The pKd [10, 45] was ≤ 4.70, the pKd [11, 45] was ≤ 4.70 and the pKd [12, 45] was ≤ 4.70. The pKd [13, 45] was ≤ 4.70, the pKd [14, 45] was ≤ 4.70 and the pKd [15, 45] was ≤ 4.70. The pKd [16, 45] was ≤ 4.70, the pKd [21, 45] was ≤ 4.70 and the pKd [17, 45] was ≤ 4.70. The pKd [18, 45] was ≤ 4.70, the pKd [19, 45] was ≤ 4.70 and the pKd [20, 45] was ≤ 4.70.

With EKLKKKSAF the pKd [22] was ≤ 4.70, the pKd [23] was ≤ 4.70 and the pKd [3, 46] was ≤ 4.70. For the same sequence, the pKd [5, 46] was ≤ 4.70, the pKd [6, 47] was ≤ 4.70 and the pKd [7, 47] was ≤ 4.70. The pKd [8, 46] was ≤ 4.70, the pKd [9, 46] was ≤ 4.70 and the pKd [10, 47] was ≤ 4.70. The pKd [24] was ≤ 4.70, the pKd [11, 46] was ≤ 4.70 and the pKd [25] was ≤ 4.70. For the same sequence, the pKd [26] was ≤ 4.70, the pKd [27] was ≤ 5.30 and the pKd [28] was ≤ 4.70. For the same sequence, the pKd [29] was ≤ 4.70, the pKd [30] was ≤ 4.70 and the pKd [31] was ≤ 4.70. For the same sequence, the pKd [32] was ≤ 4.70, the pKd [33] was ≤ 4.70 and the pKd [34] was ≤ 4.70. For the same sequence, the pKd [35] was ≤ 4.70, the pKd [36] was ≤ 4.70 and the pKd [13, 48] was ≤ 4.70. For the same sequence, the pKd [15, 48] was ≤ 4.70, the pKd [21, 48] was ≤ 4.70 and the pKd [17, 48] was ≤ 4.70.

In the case of GMWCVLASR, the pKd [12, 49] was ≤ 4.70, the pKd [37] was ≤ 4.70 and the pKd [38] was 6.03. The pKd [39] was ≤ 4.70, the pKd [40, 49] was ≤ 4.70 and the pKd [13, 49] was ≤ 4.70. For the same sequence, the pKd [41] was ≤ 4.70, the pKd [14, 49] was ≤ 4.70 and the pKd [42] was ≤ 4.70. For the same sequence, the pKd [15, 49] was ≤ 4.70, the pKd [16, 49] was ≤ 4.70 and the pKd [21, 49] was ≤ 4.70. For the same sequence, the pKd [17, 49] was ≤ 4.70, the pKd [18, 49] was ≤ 4.70 and the pKd [19, 49] was ≤ 4.70. For the same sequence, the pKd [20, 49] was ≤ 4.70.

For HWMDATFNI, the pKd ([1]; source organism: Choclo virus) was ≤ 4.70, the pKd ([2]; source organism: Choclo virus) was ≤ 4.70 and the pKd ([3]; source organism: Choclo virus) was ≤ 4.70. The pKd ([4]; source organism: Choclo virus) was ≤ 4.70, the pKd ([5]; source organism: Choclo virus) was ≤ 4.70 and the pKd ([6]; source organism: Choclo virus) was ≤ 4.70. The pKd ([12]; source organism: Choclo virus) was ≤ 4.70, the pKd ([40]; source organism: Choclo virus) was ≥ 10.00 and the pKd ([13]; source organism: Choclo virus) was ≤ 4.70. The pKd ([14]; source organism: Choclo virus) was ≤ 4.70, the pKd ([15]; source organism: Choclo virus) was ≤ 4.70 and the pKd ([16]; source organism: Choclo virus) was ≤ 4.70. For the same sequence, the pKd ([21]; source organism: Choclo virus) was ≤ 4.70, the pKd ([17]; source organism: Choclo virus) was ≤ 4.70 and the pKd ([18]; source organism: Choclo virus) was ≤ 4.70. The pKd ([19]; source organism: Choclo virus) was ≤ 4.70 and the pKd ([20]; source organism: Choclo virus) was ≤ 4.70.
